Data set [1] deals with the molecule itself. In words: AUC; loading concentration 0.50 mg/mL (27.07 uM).
Data set [2] deals with the molecule itself. The data set is described as follows: AUC; loading concentration 0.70 mg/mL (37.90 uM).
Data set [3] deals with the molecule itself. The data set is described as follows: AUC; sedimentation velocity, absorbance at 280 nm, 50 000 rpm, 20 °C, PBS (137 mM NaCl, 2.7 mM KCl, 10 mM Na2HPO4, 1.8 mM KH2PO4, pH 7.35), 0.05 to 0.7 g/L; UltraScan III (2DSA, GA, GAMC, van Holde-Weischet; KD by discrete model genetic algorithm); dimer to monomers.

For orientation: Kd means the constant that tells how readily two partners part at equilibrium. Low values mean a tighter complex, high ones a looser complex. Broadly, the stoichiometry N is the number of molecules, sites or subunits per partner or assembly.

B1: CBM_(CipA), cellulose binding module of the cellulosome anchoring protein CipA (domain or fragment, Clostridium thermocellum)
chain: MGNLKVEFYNSNPSDTTNSINPQFKVTNTGSSAIDLSKLTLRYYYTVDGQKDQTFWCDHAAIIGSNGSYNGITSNVKGTFVKMSSSTNNADTYLEISFTGGTLEPGAHVQIQGRFAKNDWSNYTQSNDYSFKSASQFVEWDQVTAYLNGVLVWGKEPLE
notes: abstract: Clostridium thermocellum, introduction: Cellulomonas fimi; differs from PDB 1NBC by the polyHis tag and two amino acids at the beginning and the end; Calculated monomer mass 18469 Da; Gene codon optimised for E. coli, in a modified pET28a(+); also called CMB_(CipA); source: E. coli BL21 (DE3), purified (heating to 70 °C, IMAC on HisTrap, desalting); not shown: His6, C-terminal, kept
Regarding B1, the equilibrium dissociation constant (Kd) is 93.9 µM in data set [1], 80.5 µM in data set [2] and about 87 µM in data set [3]. In data set [3], the “stoichiometry N” value amounted to 2.

The values are drawn from article doi:10.1101/638320, “Analyzing the weak dimerization of a cellulose binding module by sedimentation velocity experiments” (bioRxiv, 2019).
